The test concerns the target T1, full-length glutathione S-transferase (GST)-Mps1 (UniProt P33981 1-857).
T1 sequence: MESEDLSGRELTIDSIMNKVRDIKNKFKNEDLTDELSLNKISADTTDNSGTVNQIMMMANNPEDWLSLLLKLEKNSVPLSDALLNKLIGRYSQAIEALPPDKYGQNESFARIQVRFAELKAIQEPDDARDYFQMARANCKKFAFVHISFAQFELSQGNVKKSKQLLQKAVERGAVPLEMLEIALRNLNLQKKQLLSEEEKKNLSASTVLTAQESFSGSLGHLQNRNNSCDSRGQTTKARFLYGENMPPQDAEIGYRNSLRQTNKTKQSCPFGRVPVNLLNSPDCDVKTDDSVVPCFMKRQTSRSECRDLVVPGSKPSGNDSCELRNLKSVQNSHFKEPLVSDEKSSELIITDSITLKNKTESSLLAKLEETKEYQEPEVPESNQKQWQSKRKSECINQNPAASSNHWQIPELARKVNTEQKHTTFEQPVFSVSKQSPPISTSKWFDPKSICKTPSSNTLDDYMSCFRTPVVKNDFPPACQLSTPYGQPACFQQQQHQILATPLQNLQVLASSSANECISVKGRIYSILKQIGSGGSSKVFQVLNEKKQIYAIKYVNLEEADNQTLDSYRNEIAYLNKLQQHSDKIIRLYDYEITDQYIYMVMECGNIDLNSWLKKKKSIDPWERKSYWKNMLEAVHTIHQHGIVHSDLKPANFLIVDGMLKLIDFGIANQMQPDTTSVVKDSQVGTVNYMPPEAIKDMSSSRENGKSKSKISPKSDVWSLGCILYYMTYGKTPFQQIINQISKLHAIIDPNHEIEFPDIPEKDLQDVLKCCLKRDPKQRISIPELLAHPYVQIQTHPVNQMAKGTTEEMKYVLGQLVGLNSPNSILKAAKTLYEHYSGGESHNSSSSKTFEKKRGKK
The experiment in a line: pull-down.

B1: recombinant His-Cetn3 (natural protein)
chain: MSLALRSELVVDKTKRKKRRELSEEQKQEIKDAFELFDTDKDEAIDYHELKVAMRALGFDVKKADVLKILKDYDREATGKITFEDFNEVVTDWILERDPHEEILKAFKLFDDDDSGKISLRNLRRVARELGENMSDEELRAMIEEFDKDGDGEINQEEFIAIMTGDI
For B1, the “fold binding to GST-Mps1 with 5 mM MgCl2 against without” value is 2.59 ± 0.91 fold.

B2: recombinant His-Cetn2 (natural protein)
chain: MASNFKKANMASSSQRKRMSPKPELTEEQKQEIREAFDLFDADGTGTIDVKELKVAMRALGFEPKKEEIKKMISEIDKEGTGKMNFGDFLTVMTQKMSEKDTKEEILKAFKLFDDDETGKISFKNLKRVAKELGENLTDEELQEMIDEADRDGDGEVSEQEFLRIMKKTSLY
For B2, the “fold binding to GST-Mps1 on coincubation with Cetn3 against Cetn2 alone” value turned out to be 3.39 ± 1.96 fold.
